Data: patent US20090149339A1 (published 2009)
Ends that are not written are not given here. * marks the point of attachment. Biotin = O=C1N[C@H]2[C@H](CS[C@H]2CCCCC(=O)*)N1

Assays:
[1] = target: T1, GST-MPP1 PDZ domain fusion protein (55 Kd erythrocyte membrane protein AA101-186; PDZ domain 1 of 1) (UniProt P08515 1-218 = GST); experiment: A assay
[2] = target: T2, GST-DVL1 PDZ domain fusion protein (human dishevelled segment polarity protein homolog AA248-340); PDZ domain … (human, UniProt P08515 1-218 = GST); experiment: A assay
T2 sequence (P08515 1-218, tags or fused parts left off): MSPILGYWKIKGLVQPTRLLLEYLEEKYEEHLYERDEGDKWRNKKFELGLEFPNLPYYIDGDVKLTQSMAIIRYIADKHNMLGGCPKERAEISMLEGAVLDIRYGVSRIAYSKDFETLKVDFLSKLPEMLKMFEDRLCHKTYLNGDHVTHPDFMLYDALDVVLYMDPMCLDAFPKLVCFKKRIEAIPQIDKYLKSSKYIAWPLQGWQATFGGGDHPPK

[3] = target: T3, GST-TAX2 PDZ domain fusion protein (human tax interaction protein 2 AA54-140; PDZ domain 1 of 1) (human, UniProt P08515 1-218 = GST); experiment: A assay
T3 construct: also called TX 2
T3 sequence (P08515 1-218, tags or fused parts left off): as above

[4] = target: T4, GST-TAX43 PDZ domain fusion protein (human tax interaction protein 43 AA15-85; PDZ domain 1 of 1) (human, UniProt P08515 1-218 = GST); experiment: A assay
T4 construct: also called TX 43

[5] = target: T5, GST-MPP2 PDZ domain fusion protein (maguk p55 subfamily member 2 (DLG2) AA185-273; PDZ domain 1 of 1) (UniProt P08515 1-218 = GST); experiment: G assay
T5 construct: also called MMP2
T5 sequence (P08515 1-218, tags or fused parts left off): as above

[6] = target: T6, GST-SYN1a PDZ domain fusion protein (alpha1-syntrophin AA96-189; PDZ domain 1 of 1) (UniProt P08515 1-218 = GST); experiment: G assay
T6 construct: also called SYN 1 alpha; SYNTR 1 alpha

[7] = target: T7, GST-CASK PDZ domain fusion protein (CASK AA495-584; PDZ domain 1 of 1) (mouse, UniProt P08515 1-218 = GST); experiment: A/G assays
T7 construct: also called mCASK
T7 sequence (P08515 1-218, tags or fused parts left off): as above

[8] = target: GST-LIM PDZ domain fusion protein (Human LIM protein AA29-112; PDZ domain 1 of 1) (human, UniProt P08515 1-218 = GST); experiment: A/G assays
Chain of GST-LIM PDZ domain fusion protein (Human LIM protein AA29-112; PDZ domain 1 of 1) (P08515 1-218, tags or fused parts left off): as above

[9] = target: GST-LIMK2 PDZ domain fusion protein (human LIM domain kinase 2 AA185-275; PDZ domain 1 of 1) (human, UniProt P08515 1-218 = GST); experiment: A/G assays
Chain of GST-LIMK2 PDZ domain fusion protein (human LIM domain kinase 2 AA185-275; PDZ domain 1 of 1) (P08515 1-218, tags or fused parts left off): as above

[10] = target: GST-NOS1 PDZ domain fusion protein (human neuronal nitric oxide synthase; PDZ domain 1 of 1) (human, UniProt P08515 1-218 = GST); experiment: A/G assays
[11] = target: T8, GST-AF6 PDZ domain fusion protein (af-6 protein AA985-1077; PDZ domain 1 of 1) (UniProt P08515 1-218 = GST); experiment: A/G assays
T8 sequence (P08515 1-218, tags or fused parts left off): as above

[12] = target: GST-prIL16 PDZ domain fusion protein (putative interleukin 16 precursor AA170-383; PDZ domains 1-2 of 2) (UniProt P08515 1-218 = GST); experiment: A/G assays
Chain of GST-prIL16 PDZ domain fusion protein (putative interleukin 16 precursor AA170-383; PDZ domains 1-2 of 2) (P08515 1-218, tags or fused parts left off): as above

[13] = target: T9, GST-KIAA0559 PDZ domain fusion protein (KIAA0559 AA766-870; PDZ1 of 1) (UniProt P08515 1-218 = GST); experiment: A/G assays
T9 construct: also called K559
T9 sequence (P08515 1-218, tags or fused parts left off): as above

[14] = target: T10, GST-KIAA0316 PDZ domain fusion protein (KIAA0316 AA197-284; PDZ domain 1 of 1) (UniProt P08515 1-218 = GST); experiment: A/G assays
T10 construct: also called K316
T10 sequence (P08515 1-218, tags or fused parts left off): as above

[15] = target: T11, GST-TAX40 PDZ domain fusion protein (human tax interaction protein 40 AA35-137; PDZ domain 1 of 1) (human, UniProt P08515 1-218 = GST); experiment: A/G assays
T11 construct: also called TX 40
T11 sequence (P08515 1-218, tags or fused parts left off): as above

[16] = target: GST-TIAM1 PDZ domain fusion protein (T-lymphoma invasion and metastasis inducing protein 1 AA1001-1088); PDZ 1 … (UniProt P08515 1-218 = GST); experiment: A/G assays
Chain of GST-TIAM1 PDZ domain fusion protein (T-lymphoma invasion and metastasis inducing protein 1 AA1001-1088); PDZ 1 … (P08515 1-218, tags or fused parts left off): as above

[17] = target: T12, GST-KIAA0303 PDZ domain fusion protein (KIAA0303 AA652-742; PDZ domain 1 of 1) (UniProt P08515 1-218 = GST); experiment: A/G assays
T12 construct: also called K303
T12 sequence (P08515 1-218, tags or fused parts left off): as above

[18] = target: T13, GST-CBP PDZ domain fusion protein (Cytohesin binding protein HE AA85-175; PDZ domain 1 of 1) (UniProt P08515 1-218 = GST); experiment: A/G assays
T13 construct: also called Prot
T13 sequence (P08515 1-218, tags or fused parts left off): as above

[19] = target: GST-MINT3 PDZ domain fusion protein (human MINT3 AA11-52; PDZ domain 1 of 1) (human, UniProt P08515 1-218 = GST); experiment: A/G assays
Chain of GST-MINT3 PDZ domain fusion protein (human MINT3 AA11-52; PDZ domain 1 of 1) (P08515 1-218, tags or fused parts left off): as above

[20] = target: T14, GST-TAX33 PDZ domain fusion protein (tax interaction protein 33 AA73-162; PDZ domain 1 of 1) (UniProt P08515 1-218 = GST); experiment: A/G assays
T14 construct: also called TX33
T14 sequence (P08515 1-218, tags or fused parts left off): as above

[21] = target: T15, GST-PTN-4 PDZ domain fusion protein (protein-tyrosine phosphatase meg1 AA774-862; PDZ domain 1 of 1) (UniProt P08515 1-218 = GST); experiment: A and G assays
[22] = target: T16, GST-41.8 kD PDZ domain fusion protein (hypothetical 41.8 kD protein AA4-85; PDZ domain 1 of 1) (UniProt P08515 1-218 = GST); experiment: A and G assays
T16 construct: also called hypoth
T16 sequence (P08515 1-218, tags or fused parts left off): as above

[23] = target: T17, GST-RGS12 PDZ domain fusion protein (human regulator of G-protein signalling 12 AA35-103; PDZ domain 1 of 1) (human, UniProt P08515 1-218 = GST); experiment: A and G assays
T17 construct: also called RSG12
T17 sequence (P08515 1-218, tags or fused parts left off): as above

[24] = target: T18, GST-PSD95 PDZ domain fusion protein (human post-synaptic density protein 95 AA387-724; PDZ domains 1-3 of 3) (human, UniProt P08515 1-218 = GST); experiment: A and G assays
T18 sequence (P08515 1-218, tags or fused parts left off): as above

[25] = target: T19, GST-NeDLG PDZ domain fusion protein (presynaptic protein sao102, neuroendocrine-dlg; PDZ domains 1-2 of 3) (UniProt P08515 1-218 = GST); experiment: A and G assays
T19 construct: also called NeDLG1
T19 sequence (P08515 1-218, tags or fused parts left off): as above

[26] = target: T1, GST-MPP1 PDZ domain fusion protein (55 …); experiment: A/G assays
[27] = target: T5, GST-MPP2 PDZ domain fusion protein …; experiment: A assay
[28] = target: T8, GST-AF6 PDZ domain fusion protein (af-6 …); experiment: A assay
[29] = target: T16, GST-41.8 kD PDZ domain fusion protein …; experiment: A assay
[30] = target: T18, GST-PSD95 PDZ domain fusion protein …; experiment: G assay
[31] = target: T19, GST-NeDLG PDZ domain fusion protein …; experiment: G assay
[32] = target: T15, GST-PTN-4 PDZ domain fusion protein …; experiment: A/G assays
[33] = target: T17, GST-RGS12 PDZ domain fusion protein …; experiment: A/G assays
[34] = target: T2, GST-DVL1 PDZ domain fusion protein …; experiment: A/G assays
[35] = target: T3, GST-TAX2 PDZ domain fusion protein …; experiment: A/G assays
[36] = target: T6, GST-SYN1a PDZ domain fusion protein …; experiment: A/G assays
[37] = target: T4, GST-TAX43 PDZ domain fusion protein …; experiment: A/G assays

T1 sequence (P08515 1-218, tags or fused parts left off): as above

Binder: Biotin-LNSCSNRRVYKKMPSIESDV [NMDA C-terminal PL peptide AA34.2L, biotinylated]
- binding result [1]: binds
- binding result [2]: binds
- binding result [3]: binds
- binding result [4]: binds
- binding result [5]: binds
- binding result [6]: binds
- binding result [7]: no binding
- binding result [8]: no binding
- binding result [9]: no binding
- binding result [10]: no binding
- binding result [11]: no binding
- binding result [12]: no binding
- binding result [13]: no binding
- binding result [14]: no binding
- binding result [15]: no binding
- binding result [16]: no binding
- binding result [17]: no binding
- binding result [18]: no binding
- binding result [19]: no binding
- binding result [20]: no binding
- binding result [21]: binds
- binding result [22]: binds
- binding result [23]: binds
- binding result [24]: binds
- binding result [25]: binds

Binder: Biotin-QGDPALQDAGDSSRKEYFI (also called GC) [Glycophorin C C-terminal PL peptide AA37L, biotinylated]
- binding result [26]: no binding
- binding result [27]: binds
- binding result [28]: binds
- binding result [29]: binds
- binding result [30]: binds
- binding result [31]: binds
- binding result [7]: no binding
- binding result [8]: no binding
- binding result [9]: no binding
- binding result [10]: no binding
- binding result [32]: no binding
- binding result [12]: no binding
- binding result [13]: no binding
- binding result [33]: no binding
- binding result [14]: no binding
- binding result [34]: no binding
- binding result [15]: no binding
- binding result [16]: no binding
- binding result [17]: no binding
- binding result [18]: no binding
- binding result [19]: no binding
- binding result [35]: no binding
- binding result [20]: no binding
- binding result [36]: no binding
- binding result [37]: no binding
